Measurements taken from patent US9757451B2, “Use of RANK/RANKL antagonists for treating muscular dystrophy” (UNIVERSITÉ LAVAL, priority 2011, dated 2017).
Entries after “also recorded” stand apart in the source; their conditions may differ.

Tests used:
C2C12 myotubes [1] = assay: Dexamethasone-induced myotube atrophy (myotube diameter) in vitro; type: cell-based, mouse
Description: FIG. 9. […] Myotubes were incubated with DEX (1,000 nM) and/or OPG at 10 ng/mL or 100 ng/mL. OPG used and tested in vivo and in vitro was bought from R&D systems (Catalog number:459-MO).
To further investigate how RANK/RANKL influences muscle function, the present inventor(s) have assessed the effect of DEX on C2C12 myoblasts grown in DMEM containing 10% FBS and 1% antibiotic-antimycotic in 96-well plates at a density of 3,000 myoblasts/well. The present inventor(s) used this mouse myoblast cell line because the present inventor(s) are very familiar with it and because it easily differentiates into myotubes and responds to RANKL stimulation. Confluent myoblasts on coverslips (approximately 300,000/well) were incubated in DMEM containing 2% horse serum for five days to allow them to differentiate into myotubes. The myotubes were then exposed to […]. This concentration was sufficient to induce a 15-20% decrease in myotube diameter relative to control myotubes after 48 h. Myotubes in other wells were treated or not with 1 mM DEX combined with 100 ng/ml of OPG. In the experiment proposed herein, myotube atrophy were determined by measuring the diameters of the myotubes at 100× magnification using a light microscope (Nikon). Three different sites in each well were blindly identified and observed throughout the experiment. The average were considered as a single value. Myotube diameters were quantified using the ImageJ digital imaging system (NIH). The diameters of 150 to 200 myotubes per well were measured after 24 and 48 h. Measurements were performed in triplicate for all the experimental conditions to enable statistical comparisons between groups.

[2] = cited from earlier work
C2C12 myotubes [3] = assay: Ca2+ concentration in myotubes measured with fluo-4; type: cell-based, mouse; conditions: RANKL 100 ng/ml, 10 min; myotubes 5 days in differentiation medium
Description: FIG. 17: RANK/RANKL interaction influences Ca^2+ homeostasis and activates different cell signaling pathways. […] Data are presented as mean+/−sem.
C2C12 myotubes fully differentiated were incubated with fluo-4 to measure Ca^2+ concentration. C2C12 Myotubes were then exposed to RANKL (100 ng/ml) for 10 min. […] (FIG. 17A). Serca activity in sham and denervated RANK^del/fl compared to sham and denervated RANK^fl/fl EDL muscles were then measured by spectrofluorimetric analysis. SERCA activity increased by more than 2-fold in EDL muscles from sham and denervated RANK^del/fl mice (FIG. 17B). […] Graph representing the difference in the expression of SERCA isoforms for each fiber type for SOL and EDL muscles compared to sham RANK^fl/fl mice. (FIG. 17E). […] Data are presented as mean+/−sem.

C57BL/10J mice = assay: Contractile and physical properties of SOL and EDL muscles of C57BL/10J control mice injected with OPG; type: in vivo; conditions: OPG 0.3 mg/kg/day i.p. 10 days, mean +/- sem
Excerpt: (§1) Muscle contractility measurements were used to test the involvement of the RANK/RANKL pathway in muscle dysfunction. In vitro measurements of muscle contractility are the gold standard for assessing muscle function and were be performed as described previously^68,69. […] Twitch and tetanic contractions were elicited, and the following measurements recorded: maximum twitch tension (Pt), time to peak tension (TPT), one-half relaxation time (RT 1/2), and maximum tetanic tension (Po). To assess muscle fatigue, EDL and SOL muscles from RANK^fl/fl and RANK^del/fl mice were stimulated at 1 train/s at 50 Hz, and the time to the loss of 30% of their initial force recorded. […] Consistent with this observation that RANK^del/fl mice expressed a faster muscle phenotype than wild type, SOL and EDL muscles from these mice were less resistant to a fatigue protocol (FIGS. 5,6). The muscles were weighed without their tendons to quantify muscle mass and to allow the calculation of the maximum specific Po (N/cm^2).
(§2) SOL and EDL muscles from male wild type and mdx mice were dissected and contractile properties analyzed at 4 weeks of age.

mdx mice = assay: Contractile and physical properties of SOL and EDL muscles of mdx mice injected with OPG; type: in vivo; conditions: for half relaxation time (½ RT) / maximal absolute force (Po) / maximal twitch tension (Pt) / time to peak tension (TPT) / Muscle weight: mdx, mean +/- sem
Excerpt: as §1
Male mdx mice (C57BL/10ScSnJ) were purchased from Jackson Laboratories. Mdx mice were then injected i.p. with OPG (0.3 mg/kg/day) for 10 days during the 3rd and 4th week of life. Body weight were measured every 2 days and drug volume were adjusted accordingly. This concentration of OPG is selected because it is known to inhibit RANKL and bone resorption.
as §2

[4] = EDL muscle ex vivo, OPG 0.3 mg/kg/day i.p. 10 days
[5] = SOL muscle ex vivo, OPG 0.3 mg/kg/day i.p. 10 days

For `C[C@@H]1C[C@H]2[C@@H]3CCC4=CC(=O)C=C[C@]4(C)[C@@]3(F)[C@@H](O)C[C@]2(C)[C@@]1(O)C(=O)CO` [DEX, dexamethasone, reference compound], the “decrease in myotube diameter relative to control myotubes” value (C2C12 myotubes [1]; 1 mM DEX, after 48 h) was 15-20%.

For “Denosumab: full human antibody that shares the pharmalogical attributes of OPG; RANKL antagonist”, the “half-life relative to OPG” value [2] is listed as “significant longer half-life”.

B1: RANKL: receptor-activator of nuclear factor κβ ligand, added at 100 ng/ml to C2C12 myotubes (protein, UniProt O35235 139-316, looked up)
Tumor necrosis factor ligand …: FSGAPAMMEGSWLDVAQRGKPEAQPFAHLTINAASIPSGSHKVTLSSWYHDRGWAKISNMTLSNGKLRVNQDGFYYLYANICFRHHETSGSVPTDYLQLMVYVVKTSIKIPSSHNLMKGGSTKNWSGNSEFHFYSINVGGFFKLRAGEEISIQVSNPSLLDPDQDATYFGAFKVQDID
With B1 the “effect on DEX-induced myotube atrophy” value (C2C12 myotubes [1]; RANKL with DEX) was “exacerbates” and the “cytosolic Ca2+ (mean fluorescence intensity of fluo-4)” value (C2C12 myotubes [3]) was “increased the release of cytosolic Ca^2+; also recorded: increased mean fluorescence intensity of fluo-4”.

B2: OPG: Osteoprotegerin, binds RANKL and inhibits the RANK/RANKL interaction; bought from R&D systems (Catalog number:459-MO) (protein, UniProt O08712 22-401, looked up)
Tumor necrosis factor …: ETLPPKYLHYDPETGHQLLCDKCAPGTYLKQHCTVRRKTLCVPCPDHSYTDSWHTSDECVYCSPVCKELQSVKQECNRTHNRVCECEEGRYLEIEFCLKHRSCPPGSGVVQAGTPERNTVCKKCPDGFFSGETSSKAPCIKHTNCSTFGLLLIQKGNATHDNVCSGNREATQKCGIDVTLCEEAFFRFAVPTKIIPNWLSVLVDSLPGTKVNAESVERIKRRHSSQEQTFQLLKLWKHQNRDQEMVKKIIQDIDLCESSVQRHLGHSNLTTEQLLALMESLPGKKISPEEIERTRKTCKSSEQLLKLLSLWRIKNGDQDTLKGLMYALKHLKTSHFPKTVTHSLRKTMRFLHSFTMYRLYQKLFLEMIGNQVQSVKISCL
In the case of B2, the “effect on DEX-induced atrophic and phenotype change process in myotubes” value (C2C12 myotubes [1]; 1 mM DEX, >100 ng/ml of OPG, preliminary results) is reported as “reversed the atrophic and phenotype change process”, the “effect on DEX-induced myotube atrophy” value (C2C12 myotubes [1]; DEX 1,000 nM, OPG 100 ng/ml, 24 and 48 h (FIG. 9)) is reported as “protects against DEX-induced myotube atrophy; also recorded: totally reversed the atrophic process; also recorded: prevents myotube atrophy” and the “half relaxation time (½ RT)” value (C57BL/10J mice; EDL muscle ex vivo) is reported as 20.3 ± 2.4 ms. The “maximal absolute force (Po)” value (C57BL/10J mice; EDL muscle ex vivo) was 14.53 ± 3.44 g, the “maximal twitch tension (Pt)” value (C57BL/10J mice; EDL muscle ex vivo) was 2.52 ± 0.26 g and the “time to peak tension (TPT)” value (C57BL/10J mice; EDL muscle ex vivo) was 25.8 ± 2.6 ms. For the same molecule, the Muscle weight (C57BL/10J mice; EDL muscle) was 4.18 ± 0.25 mg, the “half relaxation time (½ RT)” value (C57BL/10J mice; SOL muscle ex vivo) was 46.8 ± 5.7 ms and the “maximal absolute force (Po)” value (C57BL/10J mice; SOL muscle ex vivo) was 10.79 ± 0.27 g. For the same molecule, the “maximal twitch tension (Pt)” value (C57BL/10J mice; SOL muscle ex vivo) was 1.8 ± 0.06 g, the “time to peak tension (TPT)” value (C57BL/10J mice; SOL muscle ex vivo) was 50.75 ± 3.83 ms and the Muscle weight (C57BL/10J mice; SOL muscle) was 3.73 ± 0.20 mg. For the same molecule, the “half relaxation time (½ RT)” value (mdx mice; [4]) was 20.67 ± 2.18 ms, the “maximal absolute force (Po)” value (mdx mice; [4]) was 10.3 ± 1.3 g and the “maximal twitch tension (Pt)” value (mdx mice; [4]) was 2.01 ± 0.2 g. For the same molecule, the “time to peak tension (TPT)” value (mdx mice; [4]) was 29.75 ± 7.47 ms, the Muscle weight (mdx mice; EDL muscle, OPG 0.3 mg/kg/day i.p. 10 days) was 4.96 ± 0.93 mg and the “half relaxation time (½ RT)” value (mdx mice; [5]) was 38 ± 3.3 ms. The “maximal absolute force (Po)” value (mdx mice; [5]) was 8.02 ± 2.99 g, the “maximal twitch tension (Pt)” value (mdx mice; [5]) was 1.2 ± 0.18 g and the “time to peak tension (TPT)” value (mdx mice; [5]) was 35.2 ± 2.43 ms. The Muscle weight (mdx mice; SOL muscle, OPG 0.3 mg/kg/day i.p. 10 days) was 4.90 ± 0.72 mg, the “increase of maximum force production (maximum specific tetanic force) of EDL muscles” value (mdx mice; male mdx mice, OPG 0.3 mg/kg daily 10 days from day 18 after birth, vs PBS) was “more than 200%” and the “specific muscle force of EDL muscles” value (mdx mice; young mdx mice (28 days), OPG 0.3 mg/kg/day i.p. 10 days, compared to PBS) was “Specific muscle force preservation is also observed”.
